Results on nine sequences are retold here after a protein production outcome set (Wang et al. 2014).

The nature of this data set: label from the status in PepcDB records.
Take “MLMTLAATTSVSFNSKLLLFRIRCSDSNPKRGFGSKKEEKDPALQQRKSSSKQSVSVPRKAPGLNTQFEGKSGRSFDIDFDERLENIRRSALEQKKTEVVKEFGPIDYDAPVKSDQKTIGLGTKVGVGIAVVVFGLVFALGDFLPTGSDSPTKNTTVVKNQISEEEKATLQQRLKEFETTLNGTPQDQAALEGAAVTLTELGDYSRAAAFLEKLAKERPTDPDVFRLLGEVNYELNNYEGSIAAYKISEKVSKGIDLEVTRGLMNAYLAAKKPDEAVKFLLDTRERLNTKKTSTTDSVTDETNLDPIQVELLLGKAYSDWGHISDAIAVYDQLISAHPEDFRGYLAKGIILRENGSRGDAERMFIQARFFAPNKAKALVDRYSKL”: the protein production entry is on record as “failed”.
On to “MLNEEQNSLEEKGGENKNEKETPLKGIHSKIPSLKQALEQTISKIKSSKEFFKQILHNKKKLYIALGALLLLIVLIVALSLLLGHKKENKQTSLQTNTIATNNETPNNTNNANNTEAERQIENLDLSDLIGKDSLKRNDENQVDAIMKKASLLYEQGQKDEALHLFDKAASFSQGIASHNLGVIKFKEKDFNGALDLFDSSIASKENASVSAIDALVSAYHLQDEDLYYHYLKIARDTLYKDYKKSFYSYAYALKSYYAGEYFEALSPLMHPNSNAFLKPNTRLASKLFLMFKDETNAYEQLQKSANAQDELALGLLQARLGHYKQALEHLQHYLHNYPKDLNALMALELVSLKKGDTLKASEALKLASHTKEDTLLANSFYPIKPTINPVFLDKERAKERFWNTQYFEGKRDFIYRLLFYYAPFKVLDSKETLGVIEEGLFLLDSDAQKDLEGASLAFKRGRLMAIADKNALQGLKALENKRLKKALSFFDLSLKNSPNNALLHYNTGLIYAQLENYHKAYFHFLRAFHLNSADYLSAVFAILASHFTHEDTTEFLREITENFYSQDFSSPTQKALLSSLIAYLNYRTNWDMDWLKNAPKKLPFYYALEAAFAKESKDKKLMVQSFGNLKKMLPKDLISNIFYEIVSYYDASIRHTLSIYTLLDSHKISWDQTMQGPILGRHFYTYMGFMVNDLDHQERLLEQKIASLEEGEAPNDWLENLALVSLFQGQYEKASALYQNLISGLKDNETHLKILAGLTYIAQNNYDSAALWLELGKLDDPNNENIRYALGLLYQRKGDLKSALNHFLAIKTSDFSSPYFDFEIDANLLKERLDQEKEGEFLE”, for which the protein production entry is recorded as “failed”.
Under “MLNIGVKDVKTNLLTPVVTLSIFGSTGAVLPALAIPVITPTQQDIQPALPEPSPLPPTSPPVLEPPPSPPSPAPESENVLIPVQKIIVEGSTLFGPAEFDPILKPLEGQQVTLAELQRATDAITKLYLEGGYLTSRAVLNEQVVRDGVIRIQVLEGRLEDIRIEGNKGIIQRYIRSRIALGAGVPLNGNRLEEQLRLLRTDPLFANLSASLRPGTTPQESVLVVRVVPARWLNAAFGLDNHTSPAIAPNRATAFLGYNNLSGRGDSVYGSYAIGNNLGTFDWGASNTVEFGYSLPLNAMNGTLTIRTLQADSEITRPPALAAFNIRSESSIYQASFRQPVIRTIREELAFGIGFLMQSAQTFVLGVPAPISPGANASGYSASRVLEFTQEYTRRDTQGAWVFRSQFNFGLPIFGATENPSPIPDGNFFSWLGQGQRLQLLWADNLLILRTDVQLTPNSLLPFHQFVIGGPLSVRGYSTNALSGDNGLRFSGEARFPVLRTANRRPIISIGPLFDLGVVWNHSRNPAGAVPNNVIAGLGMGLLVQPTPNLDLQLQYAAPLIDLPGQTRSLQSDGIYFSLTVRP” stands “failed”; under “MLNIKRIKKKMNARNLFATAALLFTASTAFAQTGVQTNTPFGSGEDSIRCRQNISLFTSYAKTGNYKDAYDFWEKAYEECPASTKNIYIYGVKISEWRLQNEQDPAKRQQIIDKILKLYDDRVKYFGEDPKYGTDYIMASKISDYMQYMGDKTDYDKVYEWIKPTIDQHGENATPRALFYYAYSSLNKAIRNEAWHETYIKDYTFASQAMEKQLEVADEKGKEFIQPLKTQIDELFAQSGLADCNTLVKMYGDKLEENKTDTTFLKNMLGMFHASDCETHPLYFQANKYLFAVQPSAIAAMGLAKEAMEGNRYNEASDYLQKAIELSKSAKDRAACNYTLGLLAMKQGSYSTARSYCNKALAEDPAMGDALILIAQMYAATANTVFPGDAIKARCVYFLAVDKLQRAKNIDPSCAPRANRLISQYSRNFPSPADVFMHPDLEKGKSLFVGGWIGESTVIR”, “failed”; under “MLNLSQNGCSVWVASSTEMVLTPTAVALGKFDGVHLGHQRVIQPVLQSTRSAQTWGDALDSSAQSANPPAAPQERIYSTVVTFRPHPQEFFTGQARTWLTPLDEKVQQLRSLGVDQLVLLPFDKELTALSPEEFVEKILVQQLRCQRISVGQDFCFGKQRRGTAKDLQLIAAKYHIPVSIVPLQTSDGQFLEDGNCGSFESLEDAPISTSLIRQALETGDIKTANRFLGRPYILIGVVVEGEQLGRTIGFPTANLELPKDKFVPRQGVYAVRVKILGESADANIPLEILGVMNIGNRPTVNGTYSSVEVYLLDWSGDLYGKELAVQLVDFLRPEQKFPSLEALKAQIQQDCTVARQILSREN”, “failed”.
Next, “MLNLSSIMKPNEIMKNWIDPEAKAEAERYDNPIPSRTLILTTLEQLDLPQSHAELVDHFDIHDQKSIDALSHRLIAMVRDGQLSKDGFKFQPIGEQPTFDATVYINNKGFGSAHIDGQNDLLLPERELRLVFNGDRVKVRQTSVDRKGKAWGFITEVTQHRVKQLIGKLAVHEGEYFLQPSAPNAHQPIPLEKELIEHAQAKVGENLRVAIDDYPTREEFSTGHIIQSMSDKADTEIIIPQTILEFGLPYEFPEEVVKDAESFKEPSKKDIEGRIDLRDLPLVTIDGEDARDFDDAVYAEKRSGGGYRVVVAIADVSHYVRLGKPLDDEAQERGTSVYFPHFVLPMLPEALSNGLCSLNPHVDRLCMVCDLKLSRAGRVMSYEFYPSVMHSKARLTYTQVGNYFDGQTDAIPDDKNIQKSLNTLFQLYQTLKGLRAKRHAMEFETIETYMTFDELGGIKEILPRTRNEAHKLIEECMLLANVAAAEFSLQHDIPMLYRVHEAPEFSRIQKVKDFVKLLGLPFPDQPTQADYQRVIEATKDRIDAPSIHAVLLRSMMQAYYGAKNAGHYGLAYEAYTHFTSPIRRYPDLLLHRAIKAHLQQKPYPLSGAALDDAGEQFSRTERRADEASRSVTTWLKCHYMKQHLGEEFIGIISAVTEFGLFVTLKDLYVDGMIHVSQLGDDFFLYDQASQSLVGQNRGQIFGLGDEVKIKVAAVNLDERKIDFELMQQITHAGRVIRQKAPRSSKTQATEQVFNVPSETTSTQERDTRKKEKSKSKPSSYAKKSAKKSSPASVSKPVKEKKKVKVKKKKSNAKPKSE”: “failed”.
Next, “MLNPRIKWSSRKFGNLFDVILHLFFSDTFLFKEIPVDVDQLLVTWDGKLVSCLPTGTRGNYLCKVSSPPGVHRVSVEVIYGGRRIVKTENVPLIDFDISLSLDKNSLLVKLLGYSDPDTISVKLNGTPLTPSRIGPGEYRVDITERGVAEVEVCISGICKRSIINVEPHLSLSDWDPSVWVGRNLYGYQVMEFLGEGGFSYVMKASSPGGVVALKIPKLTQSPASGLTRNVINVLDDLFKEQSALLELSDSPYLVKLVGVHLDRDSVRRALTEPRYYLEYPPMIVMEFMAGGSVSRLVKDDVQFYSDNWKTAVFMIISRISSGLLKIHEKGYVHCDVKPSNILLDREPPPTAGELYERMKRREVNPKLADLGSAVKIGGVPPGVTLEYSSLEQVTSTRYGGVNPRDDVYSLGATIYYLLTKRYLNSPMIPFMEKALGGGGLDNSVYALRDYSTLEAVGLDSKIVRFIKDMTSENRDKRPSSLEVFNFFTSLVN”: “failed”; “MLNPSLDIISLMAYLTSSSLVGLKLLNFSINLFISSSFLTFLKSLKCSLILPISMPANSGILFTAVSFMLARSLAMSSFGVFSSIINLFTTIHLPYLAVKLI”: “failed”; “MLNSAGKLIYGLCFLLVVCVNNAMAEVIHSERSLYRNILVEDNGDLRCLKFNVKSTKTRQSCLLKSQPQQLVFNYTKQLLTGLLVNPEPKHILIIGLGGGTMSNTLHQLLPDSYIDNVEIDESVIKVARQYFGFLENDQIKTYSQDGRVFVKRALLKKQEYDWIILDAFNGDYIPEHLMTKEYLEETKRLLSPQGILTANTFSSSQLYRYESATYKAVFGDYYQVSNPDNSNRIILARNSGLDENLYKELAAAEQSESITQLAIKLLAIGVEVKQLYKNIKSTATHQDWPDDSPVLTDQFSPANLLNIDVD”: “failed”.
